Assay results from paper PMC10397247.

Columns and labels:
P5A = target: T1, P5A; assay: two-hybrid library CCNG1;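 further: natural log of median RNA to DNA barcode read ratio; higher means stronger binding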
T1 chain: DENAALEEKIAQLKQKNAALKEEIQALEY

P6A = target: T2, P6A; assay: two-hybrid library CCNG1; details: mean of both orientations;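 further: natural log of median RNA to DNA barcode read ratio; higher means stronger binding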
T2 chain: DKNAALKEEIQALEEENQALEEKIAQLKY

P7A = target: T3, P7A; assay: two-hybrid library CCNG1;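 further: natural log of median RNA to DNA barcode read ratio; higher means stronger binding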
T3 chain: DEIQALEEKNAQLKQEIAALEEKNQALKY

P8A = target: T4, P8A; assay: two-hybrid library CCNG1;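 further: natural log of median RNA to DNA barcode read ratio; higher means stronger binding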
T4 chain: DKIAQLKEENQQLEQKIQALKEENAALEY

P9A = target: T5, P9A; assay: two-hybrid library CCNG1
T5 chain: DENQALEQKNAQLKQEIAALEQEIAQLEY

4H3354-bH = target: T6, 4H3354-bH; assay: two-hybrid library CCNG1
T6 chain: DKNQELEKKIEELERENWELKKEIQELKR

4H338-bH = target: T7, 4H338-bH; assay: two-hybrid library CCNG1
T7 chain: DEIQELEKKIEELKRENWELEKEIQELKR

4H3427-bH = target: T8, 4H3427-bH; assay: two-hybrid library CCNG1
T8 chain: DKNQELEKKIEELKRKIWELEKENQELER

4H3782-bH = target: T9, 4H3782-bH; assay: two-hybrid library CCNG1
T9 chain: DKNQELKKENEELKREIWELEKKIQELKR

4H3855-bH = target: T10, 4H3855-bH; assay: two-hybrid library CCNG1
T10 chain: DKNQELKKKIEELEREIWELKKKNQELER

4H4001-bH = target: T11, 4H4001-bH; assay: two-hybrid library CCNG1
T11 chain: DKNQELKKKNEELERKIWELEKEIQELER

4H454-bH = target: T12, 4H454-bH; assay: two-hybrid library CCNG1
T12 chain: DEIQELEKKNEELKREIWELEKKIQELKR

4H496-bN = target: T13, 4H496-bN; assay: two-hybrid library CCNG1
T13 chain: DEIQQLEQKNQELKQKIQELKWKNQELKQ

4H568-bH = target: T14, 4H568-bH; assay: two-hybrid library CCNG1
T14 chain: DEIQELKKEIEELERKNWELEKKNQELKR

4H607-bH = target: T15, 4H607-bH; assay: two-hybrid library CCNG1
T15 chain: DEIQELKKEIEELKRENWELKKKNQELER

4H687-bH = target: T16, 4H687-bH; assay: two-hybrid library CCNG1
T16 chain: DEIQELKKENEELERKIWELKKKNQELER

4H717-bH = target: T17, 4H717-bH; assay: two-hybrid library CCNG1
T17 chain: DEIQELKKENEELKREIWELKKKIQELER

4H72-bH = target: T18, 4H72-bH; assay: two-hybrid library CCNG1
T18 chain: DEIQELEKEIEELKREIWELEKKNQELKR

4H754-bH = target: T19, 4H754-bH; assay: two-hybrid library CCNG1
T19 chain: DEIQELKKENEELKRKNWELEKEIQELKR

4H797-bH = target: T20, 4H797-bH; assay: two-hybrid library CCNG1
T20 chain: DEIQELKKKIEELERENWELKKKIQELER

4H883-bH = target: T21, 4H883-bH; assay: two-hybrid library CCNG1
T21 chain: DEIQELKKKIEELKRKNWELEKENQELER

4H908-bH = target: T22, 4H908-bH; assay: two-hybrid library CCNG1
T22 chain: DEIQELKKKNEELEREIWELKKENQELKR

4H918-bH = target: T23, 4H918-bH; assay: two-hybrid library CCNG1
T23 chain: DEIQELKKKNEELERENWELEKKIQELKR

4H953-bH = target: T24, 4H953-bH; assay: two-hybrid library CCNG1
T24 chain: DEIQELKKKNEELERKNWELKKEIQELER

4H967-bH = target: T25, 4H967-bH; assay: two-hybrid library CCNG1
T25 chain: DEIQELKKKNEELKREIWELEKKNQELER

O2 = target: T26, O2; assay: two-hybrid library CC0; details: mean of both orientations
T26 chain: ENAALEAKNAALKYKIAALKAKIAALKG

O3 = target: T27, O3; assay: two-hybrid library CC0; details: mean of both orientations
T27 chain: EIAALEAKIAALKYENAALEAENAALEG

O4 = target: T28, O4; assay: two-hybrid library CC0; details: mean of both orientations
T28 chain: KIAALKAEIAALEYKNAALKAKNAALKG

O5 = target: T29, O5; assay: two-hybrid library CC0; details: mean of both orientations
T29 chain: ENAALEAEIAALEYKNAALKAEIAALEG

O6 = target: T30, O6; assay: two-hybrid library CC0; details: mean of both orientations
T30 chain: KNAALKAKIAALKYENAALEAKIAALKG

O7 = target: T31, O7; assay: two-hybrid library CC0; details: mean of both orientations
T31 chain: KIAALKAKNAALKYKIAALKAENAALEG

O8 = target: T32, O8; assay: two-hybrid library CC0; details: mean of both orientations
T32 chain: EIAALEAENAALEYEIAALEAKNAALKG

O9 = target: T33, O9; assay: two-hybrid library CC0; details: mean of both orientations
T33 chain: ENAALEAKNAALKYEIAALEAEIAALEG

Question: Which results are given for DENAALEEKIAQLKQKNAALKEEIQALEY [P5A]?
Answer: interaction score (P5A): -1.41; interaction score (P6A): 1.19; interaction score (P7A): -1.31; interaction score (P8A): -1.04; interaction score (P9A): -1.38

Question: DKNQELEKKIEELERENWELKKEIQELKR [4H3354-bH] was tested. Which interaction score (4H3354-bH) did it give?
Answer: 1.31

Question: And the interaction score (4H338-bH)?
Answer: 0.838

Question: And the interaction score (4H3427-bH)?
Answer: 0.568

Question: And the interaction score (4H3782-bH)?
Answer: -0.062

Question: And the interaction score (4H3855-bH)?
Answer: -0.383

Question: And the interaction score (4H4001-bH)?
Answer: -0.37

Question: And the interaction score (4H454-bH)?
Answer: 0.274

Question: What about the interaction score (4H496-bN) of the same binder?
Answer: 0.755

Question: What about the interaction score (4H568-bH) of the same binder?
Answer: -1.08

Question: And the interaction score (4H607-bH)?
Answer: -1.77

Question: And the interaction score (4H687-bH)?
Answer: -2.6

Question: And the interaction score (4H717-bH)?
Answer: 0.648

Question: What about the interaction score (4H72-bH) of the same binder?
Answer: -1.11

Question: And the interaction score (4H754-bH)?
Answer: -0.2

Question: What about the interaction score (4H797-bH) of the same binder?
Answer: 0.357

Question: And the interaction score (4H883-bH)?
Answer: -0.344

Question: And the interaction score (4H908-bH)?
Answer: -1.61

Question: And the interaction score (4H918-bH)?
Answer: 0.89

Question: And the interaction score (4H953-bH)?
Answer: -1.49

Question: And the interaction score (4H967-bH)?
Answer: -0.105

Question: Which results are given for ENAALEAKNAALKYKIAALKAKIAALKG [O2]?
Answer: interaction score (O2): -2.68; interaction score (O3): -2.68; interaction score (O4): -2.74; interaction score (O5): -2.66; interaction score (O6): -2.73; interaction score (O7): -2.83; interaction score (O8): -2.05; interaction score (O9): -1.04
